We go through one protein from patent US6676943.

The target in this data set is human complement protein C3, P01024.
Sequence of human complement protein C3, P01024 (P01024 whole entry, looked up): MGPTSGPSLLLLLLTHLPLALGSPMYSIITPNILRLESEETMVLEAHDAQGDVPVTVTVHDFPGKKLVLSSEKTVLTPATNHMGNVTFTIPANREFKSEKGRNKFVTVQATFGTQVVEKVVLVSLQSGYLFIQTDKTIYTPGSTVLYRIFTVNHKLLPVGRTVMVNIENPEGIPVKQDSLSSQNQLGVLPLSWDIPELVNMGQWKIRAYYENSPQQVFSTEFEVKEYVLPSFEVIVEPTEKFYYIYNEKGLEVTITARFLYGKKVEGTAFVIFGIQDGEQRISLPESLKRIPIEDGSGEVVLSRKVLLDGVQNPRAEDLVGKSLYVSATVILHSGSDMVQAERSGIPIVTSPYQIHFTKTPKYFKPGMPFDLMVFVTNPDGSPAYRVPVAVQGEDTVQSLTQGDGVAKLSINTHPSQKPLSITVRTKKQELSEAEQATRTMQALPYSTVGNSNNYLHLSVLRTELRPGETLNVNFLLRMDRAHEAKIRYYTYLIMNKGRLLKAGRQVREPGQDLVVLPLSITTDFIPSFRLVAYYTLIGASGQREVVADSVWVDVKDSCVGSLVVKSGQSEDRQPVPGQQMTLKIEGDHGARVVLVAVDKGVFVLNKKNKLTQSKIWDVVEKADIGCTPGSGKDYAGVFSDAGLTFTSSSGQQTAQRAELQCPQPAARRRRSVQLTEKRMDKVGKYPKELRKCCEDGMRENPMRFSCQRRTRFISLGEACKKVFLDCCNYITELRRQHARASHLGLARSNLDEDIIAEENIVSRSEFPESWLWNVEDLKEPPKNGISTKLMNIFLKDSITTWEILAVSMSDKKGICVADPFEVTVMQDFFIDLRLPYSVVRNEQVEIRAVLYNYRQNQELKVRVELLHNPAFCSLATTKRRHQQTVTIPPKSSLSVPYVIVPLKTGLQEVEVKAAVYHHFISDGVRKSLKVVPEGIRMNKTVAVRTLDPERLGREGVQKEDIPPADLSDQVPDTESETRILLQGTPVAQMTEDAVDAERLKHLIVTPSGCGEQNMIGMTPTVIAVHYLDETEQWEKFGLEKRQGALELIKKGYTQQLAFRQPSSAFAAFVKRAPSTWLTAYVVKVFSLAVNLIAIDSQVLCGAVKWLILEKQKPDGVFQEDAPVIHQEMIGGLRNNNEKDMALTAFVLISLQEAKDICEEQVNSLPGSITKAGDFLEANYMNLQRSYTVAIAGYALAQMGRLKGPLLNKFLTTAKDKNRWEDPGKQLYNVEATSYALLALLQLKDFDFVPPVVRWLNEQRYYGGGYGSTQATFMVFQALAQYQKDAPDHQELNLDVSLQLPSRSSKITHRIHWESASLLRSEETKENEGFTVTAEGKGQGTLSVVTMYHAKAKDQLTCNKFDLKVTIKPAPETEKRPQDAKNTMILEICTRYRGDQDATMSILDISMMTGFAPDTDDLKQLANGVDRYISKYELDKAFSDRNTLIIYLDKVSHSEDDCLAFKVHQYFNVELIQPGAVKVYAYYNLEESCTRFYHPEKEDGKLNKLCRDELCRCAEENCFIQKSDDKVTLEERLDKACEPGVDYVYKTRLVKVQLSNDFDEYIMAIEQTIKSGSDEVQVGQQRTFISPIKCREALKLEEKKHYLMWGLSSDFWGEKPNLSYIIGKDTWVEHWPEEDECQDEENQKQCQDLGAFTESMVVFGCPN

B1: His-tagged CppA protein (recombinant C3-degrading proteinase of Streptococcus pneumoniae encoded by ORF3 / cppA) (protein)
chain: MNVNQIVRIIPTLKANNRKLNETFYIETLGMKALLEESAFLSLGDQTGLEKLVLEEAPSMRTRKVEGRKKLARLIVKVENPLEIEGILSKTDSIHRLYKGQNGYAFEIFSPEDDLILIHAEDDIASLVEVGEKPEFQTDLASISLSKFEISMELHLPTDIESFLESSEIGASLDFIPAQGQDLTVDNTVTWDLSMLKFLVNELDIASLRQKFESTEYFIPKSEKFFLGKDRNNVELWFEEV
Take B1: the “C3 degradation (4 hrs at 37 C in PBS; reducing SDS-PAGE and Western Blot with polyclonal anti-C3)” value was “the protein degraded human C3 protein. Both α and β chains of C3 molecules were susceptible to degradation”; the “C3 degradation (4 hrs at 37 C in PBS; reducing SDS-PAGE and Western immunoblotting with polyclonal anti-C3)” value is given as “the samples that contained the expressed protein degraded C3 molecules ... the α chain was almost completely degraded while the β chain was partially degraded in the ORF3 samples”.
